Drawing on the supplement of paper PMC10598134, this text covers collision cross section for 58 substances.

The data set can be described thus: collision cross section of modified peptide (TIMS, N2, iRT-aligned); higher = larger / more extended gas-phase ion. In a few lines:
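Values are averages of 1–3 technical replicates of the most abundant feature for each charge state. Collision cross section was obtained from the Mason-Schamp equation after 1/K0 calibration with three reference ions and run-wise alignment to the median iRT peptide deviation. Synthetic peptide pools (iRT standard spiked 1:40) were separated on a 120-min nanoflow C18 gradient at 60 °C, analysed on a timsTOF Pro/HT (dda-PASEF, nitrogen, ~2.4 mbar) and identified with MaxQuant.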

Where [1] appears, read: charge state: 3, modification: Propionyl.
Setting [2] is: charge state: 2, modification: Malonyl.
The mark [3] stands for this setting: charge state: 2, modification: Nitro (Y).
Where [4] appears, read: charge state: 2, modification: Acetyl (K).
[5] abbreviates: charge state: 3, modification: Acetyl (K).
Setting [6] is: charge state: 2, modification: GlyGly (K).
[7] abbreviates: charge state: 3, modification: GlyGly (K).
[8] abbreviates: charge state: 3, modification: Trimethyl (K).
The mark [9] stands for this setting: charge state: 3, modification: Malonyl.
The mark [10] stands for this setting: charge state: 2, modification: Glutarylation.
Setting [11] is: charge state: 3, modification: Glutarylation.
Setting [12] is: charge state: 2, modification: Trimethyl (K).
The mark [13] stands for this setting: charge state: 2, modification: Methyl (K).
[14] abbreviates: charge state: 3, modification: Methyl (K).
Where [15] appears, read: charge state: 2, modification: hydroxyisobutyryl.
Where [16] appears, read: charge state: 3, modification: hydroxyisobutyryl.
[17] abbreviates: charge state: 3, modification: Methyl (R).
[18] abbreviates: charge state: 2, modification: Crotonyl.
Setting [19] is: charge state: 2, modification: Succinyl.
[20] abbreviates: charge state: 2, modification: Propionyl.
The mark [21] stands for this setting: charge state: 2, modification: Butyryl.
Where [22] appears, read: charge state: 3, modification: Butyryl.
Setting [23] is: charge state: 3, modification: Succinyl.
The mark [24] stands for this setting: charge state: 2, modification: Formyl.

± gives the standard deviation.

As to “IHVQSSSDSSDEPAEKR [_IHVQSSSDSSDEPAEK(Propionyl)R_]”, under setting [1], the collision cross section is 506.45 ± 1.4 Å².

On to GAEKTEVAEPR [_GAEK(Malonyl)TEVAEPR_], for which the collision cross section under setting [2] is reported as 372.62 ± 0.63 Å². Take “FLQEFYQDDELGK [_FLQEFY(Nitro (Y))QDDELGK_]”: under setting [3], the collision cross section was found to be 428.07 ± 1.5 Å². With “ANLEKAQAELVGTADEATR [_ANLEK(Acetyl (K))AQAELVGTADEATR_]”, the collision cross section is, setting by setting: under setting [4], 471.91 ± 3.1 Å²; under setting [5], 570.31 ± 0.74 Å².

With “TTGFYSGFSEVAEKR [_TTGFYSGFSEVAEK(GlyGly (K))R_]”, the collision cross section is, setting by setting: under setting [6], 463.26 ± 1.6 Å²; under setting [7], 525.41 ± 1.1 Å². “PSVGSQSNQAGQGKR [_PSVGSQSNQAGQGK(Trimethyl (K))R_]”: the collision cross section under setting [8] was determined as 463.16 ± 1.5 Å². Regarding “LLIVSTTPYSEKDTK [_LLIVSTTPYSEK(Malonyl)DTK_]”, the collision cross section is given as 454.81 ± 0.99 Å² under setting [2] and 468.47 ± 1.2 Å² under setting [9]. The substance LDHLAEKFR [_LDHLAEK(Propionyl)FR_] returned a collision cross section under setting [1] of 442.11 ± 0.59 Å². Substance “IHNAENIQPGEQKYEYK [_IHNAENIQPGEQK(Trimethyl (K))YEYK_]” came in with a collision cross section under setting [8] of 526.11 ± 2.2 Å². Turning to “PANEKATDDYHYEK [_PANEK(Gluratylation)ATDDYHYEK_]”, the collision cross section runs as follows: under setting [10], 448.09 ± 1.5 Å²; under setting [11], 511.51 ± 1 Å².

Regarding “YEEIVKEVSTYIK [_YEEIVK(Trimethyl (K))EVSTYIK_]”, the collision cross section under setting [12] came to 455.74 ± 0.69 Å² and the collision cross section under setting [8] is reported as 498.32 ± 1.1 Å². For “VGTASVLQPVKK [_VGTASVLQPVK(GlyGly (K))K_]”, the collision cross section was determined as 404.53 ± 0.36 Å² under setting [6] and 466.32 ± 0.78 Å² under setting [7].

“IVEKYGYTHLSAGELLR [_IVEK(Acetyl (K))YGYTHLSAGELLR_]” returned a collision cross section under setting [5] of 562.4 ± 1.8 Å². In the case of “ITESVAETAQTIKK [_ITESVAETAQTIK(Gluratylation)K_]”, the collision cross section reads like this: under setting [10], 429.83 ± 0.97 Å²; under setting [11], 514.64 ± 1.7 Å². Turning to “DSSPTTNSKLSALQR [_DSSPTTNSK(Malonyl)LSALQR_]”, the collision cross section is, setting by setting: under setting [2], 424.62 ± 0.65 Å²; under setting [9], 494.68 ± 0.88 Å². With “VLDSGAPIKIPVGPETLGR [_VLDSGAPIK(Trimethyl (K))IPVGPETLGR_]”, under setting [8], the collision cross section turned out to be 508.9 ± 0.87 Å².

With SPDEAYAIAKK [_SPDEAYAIAK(Methyl (K))K_], the collision cross section by setting is: under setting [13], 372.23 ± 0.47 Å²; under setting [14], 436.75 ± 4.3 Å². Turning to “SFSASGAQIVSR [_SFSASGAQIVS(HexNAc (ST))R_]”, the collision cross section (charge state: 2, modification: HexNAc (ST)) was found to be 387.57 ± 0.63 Å². Regarding “LQDVSGQLSSSKK [_LQDVSGQLSSSK(hydroxyisobutyryl)K_]”, the collision cross section runs as follows: under setting [15], 404.16 ± 0.3 Å²; under setting [16], 470.99 ± 5.5 Å². For the substance “VYIASSSGSTAIKK [_VYIASSSGSTAIK(hydroxyisobutyryl)K_]”, the collision cross section by setting is: under setting [15], 417.04 ± 1.1 Å²; under setting [16], 511.39 ± 2 Å². With TYVQDILR [_TY(Nitro (Y))VQDILR_], the collision cross section under setting [3] is recorded as 350.96 ± 0.47 Å². In the case of “DDSFLGKLGGTLAR [_DDSFLGK(GlyGly (K))LGGTLAR_]”, the collision cross section by setting is: under setting [6], 434.49 ± 0.96 Å²; under setting [7], 484.35 ± 1.9 Å². With YRGDYDR [_YR(Methyl (R))GDYDR_], the collision cross section (charge state: 2, modification: Methyl (R)) is on record as 328.99 ± 0.25 Å² and the collision cross section under setting [17] is on record as 408.46 ± 0.36 Å². As for VETTVTSLKTK [_VETTVTSLK(Crotonyl)TK_], under setting [18], the collision cross section is given as 389.71 ± 0.89 Å². Turning to “AGQKLIDVNHYAK [_AGQK(hydroxyisobutyryl)LIDVNHYAK_]”, the collision cross section is, setting by setting: under setting [15], 436.67 ± 0.29 Å²; under setting [16], 483.82 ± 2.8 Å². Substance SEASSEFAKK [_SEASSEFAK(Succinyl)K_] yielded a collision cross section under setting [19] of 351.69 ± 0.87 Å². On to “VNVEAPDVNLEGLGGKLK [_VNVEAPDVNLEGLGGK(Methyl (K))LK_]”, for which the collision cross section runs as follows: under setting [13], 464.13 ± 2.6 Å²; under setting [14], 541.64 ± 0.51 Å². Regarding LQNSYQPTNK [_LQNSY(Nitro (Y))QPTNK_], the collision cross section under setting [3] amounted to 362.69 ± 0.94 Å². “SSGPGGQNVNKVNSK [_SSGPGGQNVNK(Crotonyl)VNSK_]” returned a collision cross section under setting [18] of 407.39 ± 1.4 Å².

As to PSVSTKLISK [_PSVSTK(Biotin)LISK_], the collision cross section (charge state: 2, modification: Biotin) is recorded as 375.49 Å². The substance “FSAYIKNSNPALNDNLEK [_FSAYIK(Acetyl (K))NSNPALNDNLEK_]” came in with a collision cross section under setting [4] of 479.82 ± 3 Å² and a collision cross section under setting [5] of 541.74 Å². As to “ALLQAKASGK [_ALLQAK(Trimethyl (K))ASGK_]”, the collision cross section reads like this: under setting [12], 354.6 ± 1.6 Å²; under setting [8], 406.65 Å².

Turning to LAEEENKAK [_LAEEENK(Propionyl)AK_], under setting [20], the collision cross section turned out to be 352.31 ± 0.33 Å². “TQDQISNIKYHEEFEK [_TQDQISNIK(Gluratylation)YHEEFEK_]”: the collision cross section under setting [11] was 554.46 ± 0.14 Å². On to “SNEEGSEEKGPEVR [_SNEEGSEEK(Crotonyl)GPEVR_]”, for which, under setting [18], the collision cross section is 406.51 ± 0.28 Å².

Regarding “FGRGTGLTQPSQR [_FGR(Citrullination (R))GTGLTQPSQR_]”, the collision cross section (charge state: 2, modification: Citrullination (R)) came to 390.81 ± 0.16 Å².

Regarding “VYIASSSGSTAIKK [_VYIASSSGSTAIK(Methyl (K))K_]”, the collision cross section runs as follows: under setting [13], 428.78 ± 1.9 Å²; under setting [14], 495.87 ± 3.1 Å².

For the substance “DSSPTTNSKLSALQR [_DSSPTTNSK(Propionyl)LSALQR_]”, the collision cross section reads like this: under setting [20], 430.82 ± 2.1 Å²; under setting [1], 498.95 Å².

Consider “ANLEKAQAELVGTADEATR [_ANLEK(Butyryl)AQAELVGTADEATR_]”, for which the collision cross section runs as follows: under setting [21], 479.49 ± 1.1 Å²; under setting [22], 578.23 ± 2 Å².

Turning to “FSAYIKNSNPALNDNLEK [_FSAYIK(Butyryl)NSNPALNDNLEK_]”, the collision cross section under setting [21] is 487.55 ± 1 Å² and the collision cross section under setting [22] was found to be 548.32 ± 1.1 Å².

Turning to “DASTLQSQKAEGTGDAK [_DASTLQSQK(Succinyl)AEGTGDAK_]”, the collision cross section runs as follows: under setting [19], 437.2 ± 0.35 Å²; under setting [23], 509.05 ± 1.6 Å². The substance “IVEKYGYTHLSAGELLR [_IVEK(Trimethyl (K))YGYTHLSAGELLR_]” registered a collision cross section under setting [8] of 554.1 ± 0.025 Å². The substance DHLSDKESK [_DHLSDK(Propionyl)ESK_] displayed a collision cross section under setting [20] of 355.5 ± 0.95 Å². Take “VFIGNLNTLVVKK [_VFIGNLNTLVVK(hydroxyisobutyryl)K_]”: the collision cross section is, setting by setting: under setting [15], 416.95 ± 0.83 Å²; under setting [16], 490.45 ± 2.8 Å². On to “ATVASSTQKFQDLGVK [_ATVASSTQK(Butyryl)FQDLGVK_]”, for which the collision cross section stood at 453.04 ± 1.1 Å² under setting [21] and 495.56 ± 1.9 Å² under setting [22]. Take IPPTYQIR [_IPPTY(Nitro (Y))QIR_]: the collision cross section under setting [3] was 343.35 ± 0.72 Å².

Consider “GTITVSAQELKDNR [_GTITVSAQELK(Butyryl)DNR_]”, for which the collision cross section under setting [21] is recorded as 422.6 ± 0.77 Å² and the collision cross section under setting [22] came out at 481.65 ± 2.9 Å². For “TVSKVDDFLANEAK [_TVSK(Butyryl)VDDFLANEAK_]”, the collision cross section under setting [21] stood at 424.02 ± 0.86 Å². Substance “TLHLSHLNRFPAR [_TLHLSHLNR(Methyl (R))FPAR_]” gave a collision cross section under setting [17] of 503.65 Å². With SKHLQEQLNELK [_SK(Formyl)HLQEQLNELK_], the collision cross section was found to be 412.77 ± 0.19 Å² under setting [24] and 477.47 ± 2.1 Å² (charge state: 3, modification: Formyl).

Consider FDDTNPEKEEAK [_FDDTNPEK(Succinyl)EEAK_], for which the collision cross section is listed as 397.2 ± 0.56 Å² under setting [19] and 438.25 ± 3.4 Å² under setting [23]. The substance “IGNSYFKEEK [_IGNSYFK(Gluratylation)EEK_]” came in with a collision cross section under setting [10] of 381.23 ± 0.61 Å². Turning to “VGLQVVAVKAPGFGDNR [_VGLQVVAVK(GlyGly (K))APGFGDNR_]”, the collision cross section is listed as 471.7 ± 1.6 Å² under setting [6] and 536.75 ± 1.1 Å² under setting [7]. For LDHLAEKFR [_LDHLAEK(Butyryl)FR_], the collision cross section is, setting by setting: under setting [21], 377.54 ± 1.3 Å²; under setting [22], 440.5 ± 3.8 Å².

Regarding “LQDVSGQLSSSKK [_LQDVSGQLSSSK(GlyGly (K))K_]”, the collision cross section runs as follows: under setting [6], 438.61 ± 1.4 Å²; under setting [7], 490.05 ± 4.9 Å². In the case of “DYSSGFGGKYGVQADR [_DYSSGFGGK(Formyl)YGVQADR_]”, the collision cross section under setting [24] worked out at 429.11 ± 0.79 Å². For “ISSNFSSIIAEKLR [_ISSNFSSIIAEK(Dimethyl (K))LR_]”, the collision cross section by setting is: (charge state: 2, modification: Dimethyl (K)) 442.58 ± 1.2 Å²; (charge state: 3, modification: Dimethyl (K)) 495.15 ± 0.74 Å². For the substance “AAINQKLIETGER [_AAINQK(Succinyl)LIETGER_]”, the collision cross section runs as follows: under setting [19], 409.41 ± 0.25 Å²; under setting [23], 475.95 ± 0.68 Å².
